Measurements taken from paper PMC12892846, “Biodistribution of the Bombesin Receptor-Targeted Radiopharmaceutical Precursor BBN/C1-C2 in a Prostate Cancer Model” (Modern Technologies in Medicine, 2025).
No end group written: not given here.

Tests used:
[1] = cited from earlier work
From the text: Currently, there have been introduced into clinical practice several radiolabeled ligands targeting GRPR and based on a gastrin-releasing peptide (GRP) analog isolated from amphibian — bombesin (BBN) [[5–8]]. […] In addition to the high concentration of radiopharmaceuticals in non-target organs, there is one more significant problem complicating cancer therapy — pharmaceutical stability.

patients = patients with AMBA therapy; cited from earlier work
From the text: The key feature of these peptides is their ability to internalize inside the cells, acting as receptor agonists. At early stages of developing pharmaceuticals, this ability was an important condition for high and long-term absorption of a tumor by a pharmaceutical. However, currently, it appears to be a substantial deficiency, since radiolabeled agonists provide high absorption of radionuclides. One more major drawback of the ligands based on GRPR agonists is their absorption by normal non-tumor cells, particularly, the pancreatic cells. So, the potent GRPR agonist — AMBA (DOTA-Gl ...

[2] = test system: Nu/Nu mice with PC-3 prostate cancer tumor; assay: In vivo surface fluorescent imaging of biodistribution; design: species or system mouse; conditions: Cy7.5-labeled peptides, i.v. 19 nmol/kg, Nu/Nu mice with PC-3 tumor, 2 days, n=3
Method: The study was carried out on Nu/Nu line male mice aged 9–10 weeks, weighing 26–28 g.
(§1) Since Cy7.5-GRP peptide stability was limited, firstly, 48 h at 37°С in phosphate-buffered saline, there were two time points used in the study — 2 and 5 days. Two weeks prior to the investigation, the animals were subcutaneously inoculated into the right side with PC-3 cells (1 mil cells in RPMI-1640, 100 μl (PanEco, Russia), and matrigel, 100 μl (ABW, China)) to form a tumor. When the tumor reached its optimal size (150–200 mm3), the animals (n=10) were divided into the following groups: group 1 animals were administered a pure dye (n=1); group 2 — were given Cy7.5-GRP peptide (n=3); group 3 — were administered Cy7.5-U5-Sth1a toxin (n=3); group 4 — had Cy7.5-BBN/C1-C2 administered (n=3). The animals were anesthetized with 3% isoflurane inhalation (Chemical Iberica, Spain) at the rate of 1 L/min within 10 min, then the dose was reduced up to 2%. The peptides were injected into the caudal vein at the rate of 19 nmol/kg. […] The regions of interest were manually determined along the organ borderline; then using the software, we calculated the total fluorescence for each region. Finally, the average fluorescence of the peptides in the organ was calculated, it being normalized to the organ weight.

[3] = test system: Nu/Nu mice with PC-3 prostate cancer tumor; assay: Semiquantitative ex vivo organ biodistribution on day 5 (fluorescence normalized to organ weight); format: in vivo, mouse; conditions: Cy7.5-labeled peptides, i.v. 19 nmol/kg, day 5, harvested organs, n=3
Method: as §1

[4] = test system: PC-3 prostate cancer solid tumor expressing GRPR; assay: Tumor fluorescent imaging on days 2 and 5; format: in vivo, mouse; conditions: Cy7.5-labeled peptides, i.v. 19 nmol/kg, PC-3 tumor in Nu/Nu mice
Method: as §1

[5] = Stability analysis of Cy7.5-labeled peptides in phosphate-buffered saline (HPLC); format: physicochemical
Method: After synthesis the chemical purity of the peptides was analyzed by reversed-phase chromatography; we used high-efficiency liquid chromatography: LC-20AD XR (Shimadzu, Japan) equipped with a spectrophotometric detector and a column Luna C18(2) ([…]). The elution was gradient, its mobile phase consisted of deionized water and acetonitrile. The acetonitrile content in a mobile phase was increased from 5% at the beginning of the study to 100% at the end of the study within 40 min. The flow rate was 1 ml/min. Detection was performed at a wavelength of 215 nm, using mass spectrometry with the MALDI-TOF MS FLEX mass spectrometer (Bruker Daltonics, Germany).
We studied the stability of both — the whole structures (Cy7.5-BBN/C1-C2, Cy7.5-GRP, Cy7.5-U5-Sth1a) and also the peptide complexes with Cy7.5. So, all peptides were incubated in the phosphate-buffered saline (pH 7.4) for 144 h, at 37°С. Every 24 h we drew the samples and analyzed them using high-efficiency liquid chromatography LC-20AD XR (Shimadzu, Japan), as described above. The stability of the complex with the dye was fixed similarly to the peptide stability fixation, as following from the accumulation of the free dye in samples.

Substance: bombesin
- proteolytic stability [1]: low proteolytic stability

Substance: N4-AMA-DIG-[DPhe6,Sar11,LeuNHEt13]BBN
- resistance to proteolysis [1]: high resistance to proteolysis

Substance: DOTA-Gly-4-aminobenzoyl-BBN(7–14) [AMBA]
- absorption by normal organs in patients (patients): significant absorption of the pharmaceutical by the pancreas and the gastrointestinal tract

Substance: GRP: a short peptide with affinity to GRPR receptors (VPLPAGGGTVLTKMYPRGNHWAVGHLM; ends and bridges not checked; UniProt P07492 24-50, looked up)
- main region of binding / accumulation on day 2 [2]: the spleen
- organ of excretion on day 2 [2]: the kidney
- organs of accumulation / localization, ex vivo [3]: localized in the stomach and the pancreas
- localization of labeled peptide in the tumor on day 2 [4]: detected in the tumor to a greater extent than BBN/C1-C2

Substance: Cy7.5-GRP: GRP peptide labeled with Cyanine7.5 fluorescent dye (VPLPAGGGTVLTKMYPRGNHWAVGHLM; ends and bridges not checked; also: Cy7.5 NHS ester bound to peptide amino group (N-terminus or Lys not given here); UniProt P07492 24-50, looked up)
- time to which peptide stability was limited ([5]; 37°C in phosphate-buffered saline): 48 h
- chemical purity / stability after 48 h ([5]; phosphate-buffered saline pH 7.4, 37°C, 48 h, reversed-phase HPLC C18, detection 215 nm): 64.5%
- chemical purity / stability after 144 h ([5]; phosphate-buffered saline pH 7.4, 37°C, 144 h, samples every 24 h, reversed-phase HPLC C18, detection 215 nm): 46.8%
- chemical purity / stability at the start of incubation ([5]; phosphate-buffered saline pH 7.4, 37°C, start of incubation, reversed-phase HPLC C18, detection 215 nm): 95.7%
